What was measured:
SBS 30888 ZFN = assay: cell_activity; conditions: paired with 30886 in G2019S heterozygous patient iPSC; pair more specific for G2019S mutant; value is % clones with monoallelic NHEJ (17% biallelic NHEJ)
SBS 30886 ZFN = assay: cell_activity; conditions: paired with 30888 in G2019S heterozygous patient iPSC; value is % clones with monoallelic NHEJ (17% biallelic NHEJ)

Row | Sequence | activity (SBS 30888 ZFN) [%] | activity (SBS 30886 ZFN) [%]
1 | GCAAAGATTGCTGACTACAGCATTGCTC (double strand) [LRRK2 6055G>A (G2019S) target of 30888] | 46 | –
2 | TGATGGCAGCATTGGGATACAGTGTGAA (double strand) [LRRK2 target of 27865/27866/27867/27868/30886] | – | 46
